Test results taken from patent US20170224778A1, “COMPOSITIONS AND METHODS THAT TARGET REGULATION OF BREATHING” (The Board of Trustees of the Leland Stanford Junior …, priority 2016, published 2017).

Legend:
NMBR [1] = target: T1, NMBR (Rattus norvegicus, UniProt P24053); assay: Sighing and breathing of urethane-anesthetized rats after bilateral preBötC injection (NMB pathway); type: in vivo; settings: 3 μM into preBötC
T1 construct: from tissue; host or cells: preBötC of the ventral medulla of living anesthetized Sprague Dawley rats
T1 sequence (P24053 1-390): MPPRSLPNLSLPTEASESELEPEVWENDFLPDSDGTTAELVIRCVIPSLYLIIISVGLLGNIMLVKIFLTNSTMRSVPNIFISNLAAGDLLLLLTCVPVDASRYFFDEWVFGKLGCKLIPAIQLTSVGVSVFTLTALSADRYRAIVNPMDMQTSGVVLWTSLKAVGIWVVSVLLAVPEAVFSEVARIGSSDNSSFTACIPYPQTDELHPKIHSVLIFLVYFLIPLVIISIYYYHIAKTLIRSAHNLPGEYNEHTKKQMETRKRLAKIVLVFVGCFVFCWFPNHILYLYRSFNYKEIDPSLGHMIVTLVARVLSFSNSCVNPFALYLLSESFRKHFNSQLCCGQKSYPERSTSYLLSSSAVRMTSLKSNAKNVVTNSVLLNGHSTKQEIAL
Method: Sigh monitoring and analysis. For awake animals, individual animals were placed in a whole body plethysmography chamber (Buxco) at room temperature (22° C.) in 21% O2 (for normoxia) or 8% O2 (for hypoxic challenge) balanced with N2. Sighs were identified in plethysmography traces by the characteristic biphasic ramp, the augmented flow in the second phase of the inspiratory effort and the prolongation of expiratory time following the event. Sighs were also confirmed by visual monitoring of breathing behavior. Given the high amplitude and distinctive waveform of sighs relative to standard eupneic breaths, sighs were unambiguously identified by both visual and computer-assisted scoring; no difference was detected in direct comparisons between methods or observers so visual scoring was used. Female 8 week old mice (Nmbr^−/−, Grpr^−/−, or C57BL/6 as wild type control) were allowed to acclimate for 10 minutes in the chamber, and then the first fifteen recorded sighs were used to calculate the sigh rate. […] Rats were allowed to acclimate in the chamber for ˜1 hr, and then baseline sigh rate and respiratory frequency were calculated for the next 2 hrs. For hypoxic (8% O2) challenge, analysis was continued for 30 minutes under the hypoxic condition. For anesthetized rats, the trachea was cannulated and connected to a pneumotachograph (GM Instruments) to record airflow. A flow calibration was performed after every experiment along with a calculation of tidal volume (VT) by digital integration. To monitor diaphragm activity, wire electrodes (Cooner Wre) were implanted into the diaphragm and electromyogram (EMG) signal sampled at 2 kHz (Powerlab 16SP; AD Instruments). Signal was rectified and digitally integrated (time constant of 0.1) to obtain a moving average using LabChart Pro 8 (AD Instruments) and Igor Pro 6 (Data Matrix) software. Sighs were identified in the airflow measurements as above and validated by double peaks in the EMG recordings.
PreBötC injection of NMB and GRP agonists and antagonists. […]

NMBR [2] = target: T2, NMBR (Mus musculus, UniProt O54799); assay: Doublets (in vitro sigh signature) in explanted preBötC brain slices, NMB effect; type: cell-based; settings: for doublet frequency increase: neonatal mouse preBötC slices
T2 construct: from tissue; host or cells: 550-μm transverse medullary slices with the preBötC, neonatal C57BL/6 mice (P0-5)
T2 sequence (O54799 1-390): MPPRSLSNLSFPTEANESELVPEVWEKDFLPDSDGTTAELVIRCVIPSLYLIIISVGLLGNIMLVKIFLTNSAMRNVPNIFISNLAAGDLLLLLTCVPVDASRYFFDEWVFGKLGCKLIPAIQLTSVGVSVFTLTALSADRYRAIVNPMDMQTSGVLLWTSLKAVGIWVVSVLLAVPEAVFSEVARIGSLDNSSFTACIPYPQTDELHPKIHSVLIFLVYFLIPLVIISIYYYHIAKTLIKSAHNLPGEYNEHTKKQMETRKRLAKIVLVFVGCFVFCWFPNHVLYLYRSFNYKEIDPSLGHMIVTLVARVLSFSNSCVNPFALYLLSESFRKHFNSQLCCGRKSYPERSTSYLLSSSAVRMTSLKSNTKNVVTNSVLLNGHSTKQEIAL
Method: In vitro slice preparation, recording, and analysis. Rhythmic 550-μm-thick transverse medullary slices containing the preBötC and XII nerve from neonatal C57BL/6 mice (P0-5) were prepared as described previously (Kam et al., 2013). The medullary slice was cut in artificial cerebrospinal fluid (ACSF) containing (in mM): 124 NaCl, 3 KCl, 1.5 CaCl2, 1 MgSO4, 25 NaHCO3, 0.5 NaH2PO4, and 30 D-glucose, equilibrated with 95% O2 and 5% CO2 (4° C., pH=7.4). For recording, extracellular K+ was raised to 9 mM to replace excitatory afferent drive lost in the cutting process. Slices were perfused at 27° C. and 4 ml/min and allowed to equilibrate for 30 minutes. Respiratory activity reflecting suprathreshold action potential (AP) firing from populations of neurons was recorded as XII bursts from either XII nerve roots and as population activity directly from the preBötC using suction electrodes and a MultiClamp 700A or 700B (Molecular Devices, Sunnyvale, Calif., USA), filtered at 2-4 kHz and digitized at 10 kHz. Digitized data were analyzed off-line using custom procedures written for IgorPro (Wavemetrics, Portland, Oreg., USA). Activity was full-wave rectified and digitally integrated with a Paynter filter with a time constant of 20 ms with either custom built electronics or using custom procedures in MATLAB (Mathworks, Natick, Mass., USA). Burst detection and analysis of respiratory-related activity recorded in full-wave rectified XII output or preBötC population recordings were performed using custom software written in IgorPro. Burst parameters were normalized to the mode of the data in the baseline condition. Although there are several proposed definitions of sighs in slice preparations, here we used “doublets” (double-peaked bursts) as the in vitro signature of sighs because, in our preparations, doublets detected both in preBötC neural population activity measurements and cranial nerve XII output recordings shared the increased inspiratory and expiratory duration of sighs. […] All doublets were verified by visual inspection to exclude multipeaked bursts and two bursts that were too far apart. Measured doublet intervals were converted to a calculated per hour doublet rate.

[3] = target: gastrin-releasing peptide receptor (GRPR) on rat preBotC neurons (rat) (UniProt P52500)
[4] = target: neuromedin B receptor (NMBR) on mouse preBotC neurons (mouse) (UniProt O54799)
[5] = target: gastrin-releasing peptide receptor (GRPR) on rat preBotC neurons (rat) (UniProt P52500); remark: listed apart in the source
[6] = target: neuromedin B receptor (NMBR) on rat preBotC neurons (rat) (UniProt P24053)
[7] = target: neuromedin B receptor (NMBR) on rat preBotC neurons (rat) (UniProt P24053); remark: listed apart in the source
[8] = target: gastrin-releasing peptide receptor (GRPR) on rat preBotC neurons (rat) (UniProt P52500); remark: listed apart in the source
[9] = target: neuromedin B receptor (NMBR) on rat preBotC neurons (rat) (UniProt P24053); remark: listed apart in the source
[10] = target: gastrin-releasing peptide receptor (GRPR) on mouse preBotC neurons (mouse) (UniProt P21729)

Substance: neuromedin B [NMB]
- change in respiratory rate (frequency, f) (NMBR [1]; bilateral NMB injection 100 nl, anesthetized rat): little change
- sighing increased (fold) (NMBR [1]; bilateral microinjection 100 nl, anesthetized adult rats, n=5): 6-17 fold
- effect on sighing persisted after injection (NMBR [1]; bilateral microinjection 100 nl, effect peaked several minutes after injection): 10 to 15 min
- doublet frequency increase (NMBR [2]; 10 nM, p=0.005, n=7): 1.7 fold
- doublet frequency increase (NMBR [2]; 30 nM, p=0.003, n=7): 2 fold
- overall frequency of bursts and doublets together (NMBR [2]; NMB on preBötC slices, p=0.2, n=7): unchanged
- fraction of total events that are doublets (NMBR [2]; preBötC slice, p<0.05, n=7): increasing
- interval following a doublet (NMBR [2]; preBötC slice, p<0.05, n=7): decreasing

Substance: GRPR antagonist RC3095
- basal sigh rate after bilateral preBotC injection in anesthetized rats [3]: 50%

Substance: neuromedin B (NMB) neuropeptide
- doublet frequency (in vitro signature of a sigh) in mouse preBotC slices [4]: 2 fold

Substance: saporin conjugated with a non-targeted peptide (blank SAP)
- basal and hypoxia-induced sigh rate in control rats [5]: 140 h⁻¹
- basal and hypoxia-induced sigh rate in control rats [6]: 140 h⁻¹

Substance: NMBR antagonist BIM23042
- basal sigh rate after bilateral preBotC injection in anesthetized rats [7]: 50%

Substance: bombesin-saporin (saporin conjugated with bombesin)
- basal sigh rate after ablation of receptor-expressing preBotC neurons in rats [8]: 95%
- basal sigh rate after ablation of receptor-expressing preBotC neurons in rats [9]: 95%
- hypoxia-induced sigh rate (8% O2) five days after injection in rats [5]: 5.1 h⁻¹
- hypoxia-induced sigh rate (8% O2) five days after injection in rats [6]: 5.1 h⁻¹

Substance: gastrin releasing peptide (GRP) neuropeptide
- doublets (in vitro signature of a sigh) in mouse preBotC slices [10]: 1.7 fold
